Data as given in PMC4719083, “Myosin IXa Binds AMPAR and Regulates Synaptic Structure, LTP, and Cognitive Function” (Frontiers in Molecular Neuroscience, 2016).

Molecular target: T1, GST C-terminal (Myo9a amino acids 2330-2626 fused to GST) (rat, UniProt Q9Z1N3 2330-2626)
T1 construct: Myosin IXa (Myo9a), rat, NCBI AJ001713, amino acids 2330-2626 (C-terminus); Cloned into pGEX-4T1; also called Myo9a GST C-term; Myo9a C-terminus; source: E. coli BL21, purified, immobilized on glutathione-Sepharose 4B beads
T1 sequence (looked up): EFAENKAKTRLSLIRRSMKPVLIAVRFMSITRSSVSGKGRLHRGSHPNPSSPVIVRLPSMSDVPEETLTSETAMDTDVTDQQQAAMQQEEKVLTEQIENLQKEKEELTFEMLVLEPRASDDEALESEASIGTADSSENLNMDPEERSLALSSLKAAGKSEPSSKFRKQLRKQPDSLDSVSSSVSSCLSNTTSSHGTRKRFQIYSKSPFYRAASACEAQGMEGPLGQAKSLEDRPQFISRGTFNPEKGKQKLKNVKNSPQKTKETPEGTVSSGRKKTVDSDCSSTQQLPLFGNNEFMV
Assay: pull-down; purified GluA2 C-term (released from GST by thrombin, in PBS) incubated with glutathione Sepharose 4B-coupled GST or GST C-term from Myo9a; immunoblot
Conditions: both partners purified

binding result: binds
B1: GluA2 C-term (GluA2 intracellular C-terminal tail, amino acids 834-883, released from GST by thrombin) (domain or fragment, rat, UniProt P19491 834-883, looked up)
chain: EFCYKSRAEAKRMKVAKNPQNINPSSSQNSQNFATYKEGYNVYGIESVKI
notes: AMPA receptor subunit GluA2, rat, NCBI M85035, intracellular C-terminal tail, amino acids 834-883; Cloned into pGEX-4T1; also called purified GluA2 C-terminus; GluA2 C-terminal tail; source: E. coli BL21, purified with glutathione-Sepharose 4B resin, released by thrombin
